Assay results published in US20260201030A1 (EVOPOINT BIOSCIENCES, published 2026).
Read-outs that look alike come from different tables or passages of the source.

Legend:
[1] = biological target: T1, human Claudin18.1 (human, UniProt P56856 1-261); experiment: FACS on HEK293T-Claudin18.1 (human) cells
T1 construct: whole, on cells; also called CLDN18.1; HEK293T-Claudin18.1 (human)

[2] = biological target: T2, human Claudin18.2 (human, UniProt P56856-2 1-261); experiment: cell-based ELISA on fixed HEK293T-Claudin18.2 (human) cells
T2 construct: whole, on cells; also called CLDN18.2; HEK293T-Claudin18.2 (human)
Protocol: (§1) The affinity of the anti-human Claudin18.2 murine monoclonal antibodies was evaluated by cell-based ELISA. The experimental procedures were as follows: The day before the experiment, HEK293T-Claudin18.2 (human) cells were plated in a 96-well plate at 5×10⁴ cells/well. On the day of the experiment, the supernatant was removed, the cells in each well were washed once with 300 μL of PBS, and 100 μL of 4% paraformaldehyde was added to each well for fixation at room temperature for 20 min. Paraformaldehyde was then removed, and the cells in each well were washed twice with 300 μL of PBS. 100 μL of 2% BSA (in PBS) was added to each well, and the mixture was blocked at 37° C. for 2 h. After removing the blocking solution, each antibody subjected to gradient dilution (diluted with 2% BSA (in PBS), starting at […], in a 3-fold gradient, for a total of 11 concentration points) was added to the plate at 100 μL/well, and the mixture was incubated at 37° C. for 2 h. The supernatant was removed, and the cells in each well were washed three times with 300 μL of PBST. 100 μL of an anti-mouse IgG HRP secondary antibody (Jackson, cat #115-035-003) in 2% BSA was added to each well, and the mixture was incubated at 37° C. for 1 h. The secondary antibody was then removed, and the cells in each well were washed five times with 300 μL of PBST, followed by the addition of 100 μL of a TMB substrate (Huzhou InnoReagents Co., Ltd.) per well for color development for 5-20 min. The reaction was stopped by adding 50 μL of 2 N HCl to each well, and OD_{450 nm} values were read on a microplate reader (manufacturer: MD, model: SpectraMax). The values obtained were plotted by GraphPad Prism to calculate the EC₅₀ value.

[3] = biological target: T1, human Claudin18.1; experiment: FACS on HEK293T-Claudin18.1 (human) cells, antibody 50 µg/mL
Protocol: The specificity of the anti-human Claudin18.2 murine monoclonal antibodies was evaluated by flow cytometry (FACS). The experimental procedures were as follows: The adherent cultured HEK293T-Claudin18.1 (human) cells were digested, collected by centrifugation, and washed three times with pre-cooled PBS. The cells were resuspended in 1% BSA (in PBS) and added to a 96-well pointed bottom plate at 3×10⁵ cells/well, with a volume of 50 μL per well. Each test antibody was diluted to 100 μg/mL with […] (in PBS) and added to the cells at 50 μL/well to achieve a final antibody concentration of 50 μg/mL. The mixture was well mixed and incubated at 4° C. for 1 h. The cells were collected by centrifugation, washed three times with pre-cooled PBS, and resuspended in 50 μL of 1% BSA (in PBS). 1 μL of a fluorescent secondary antibody (Biolegend, cat #405308) was added to each well, and the mixture was well mixed and incubated at 4° C. for 0.5 h. The cells were collected by centrifugation, washed three times with pre-cooled PBS, resuspended in 200 μL of PBS, and assayed on a machine (flow cytometer model: Sony-LE-SA3800GA). The APC fluorescence signal value was obtained, and the gate was set using an isotype control antibody as a negative control to obtain the percentage of positively stained cells (positive rate (0%)).

[4] = biological target: T2, human Claudin18.2; experiment: cell-based or functional assay
[5] = biological target: T2, human Claudin18.2; experiment: FACS on HEK293T-Claudin18.2 (human) cells
Protocol: The affinity of the anti-human Claudin18.2 humanized antibodies was detected by flow cytometry. The experimental procedures were as follows: The adherent cultured HEK293T-Claudin18.2 (human), NUGC4-Claudin18.2 (human) and NUGC4 cells were digested, collected by centrifugation, and washed three times with pre-cooled PBS. The cells were resuspended in 1% BSA (in PBS) and added to a 96-well pointed bottom plate at 3×10⁵ cells/well, with a volume of 50 μL per well. Each test antibody was diluted with 1% BSA (in PBS) (starting at 100 μg/mL, diluted in a 3-fold gradient, for 10 concentration points). The test antibody subjected to gradient dilution was added to the cells at 50 μL/well, and the mixture was well mixed and incubated at 4° C. for 1 h. The cells were collected by centrifugation, washed three times with pre-cooled PBS, and resuspended in 50 μL of 1% BSA (in PBS). 1 μL of a fluorescent secondary antibody (Biolegend-410712) was added to each well, and the mixture was well mixed and incubated at 4° C. for 0.5 h. The cells were collected by centrifugation, washed three times with pre-cooled PBS, resuspended in 200 μL of PBS, and assayed on a machine.

[6] = biological target: T2, human Claudin18.2; experiment: cell-based ELISA on L929-Claudin18.2 (human) cells
[7] = biological target: T2, human Claudin18.2; experiment: cell-based ELISA on HEK293T-Claudin18.2 (human) cells
Protocol: as §1, with “100 μL of an anti-mouse IgG HRP secondary antibody (Jackson, cat #115-035-003) in 2% BSA was added to each well, and the mixture was incubated at 37° C. for 1 h. The secondary antibody was then removed, and the cells in each well were washed five times with 300 μL of PBST, followed by the addition of 100 μL of a TMB substrate (Huzhou InnoReagents Co., Ltd.) per well for color development for 5-20 min.” left out, “The values obtained were plotted by GraphPad Prism to calculate the EC₅₀ value.” left out
The affinity of the anti-human Claudin18.2 humanized monoclonal antibodies was determined by cell-based ELISA. […]

[8] = biological target: T1, human Claudin18.1; experiment: FACS on HEK293T-Claudin18.1 (human) cells, antibody 50 µg/mL; remark: listed apart in the source
Protocol: The specificity of the anti-human Claudin18.2 humanized monoclonal antibodies was determined by flow cytometry (FACS). The experimental procedures were as follows: HEK293T-Claudin18.1 (human) cells were digested, collected by centrifugation, washed three times with pre-cooled PBS, resuspended in 1% BSA (in PBS), and added to a 96-well pointed bottom plate at 3×10⁵ cells/well. Each test antibody with a final concentration of 50 μg/mL was added, and the mixture was incubated at 4° C. for 1 h. The cells were washed three times with pre-cooled PBS, and then 1 μL of a fluorescent secondary antibody (APC: Biolegend-410712 or PE: BioLegend-410708) was added to each well. The mixture was incubated at 4° C. for 0.5 h, and the cells were washed three times with pre-cooled PBS, then resuspended, and assayed on a flow cytometer. For reference, anti-human Claudin18.1 positive control antibodies (positive control antibody-1 and positive control antibody-2) were included in the experiment.

[9] = biological target: T2, human Claudin18.2; experiment: cell-based ELISA on NUGC4 cells (endogenous human Claudin18.2)
[10] = biological target: T2, human Claudin18.2; experiment: cell-based ELISA (OD450) on NUGC4 cells (endogenous human Claudin18.2)

| binding result [1] | EC50 [2] [µg/mL] | Mean APC fluorescence signal value [3] | Positive rate (%) [3] [%] | Binder | also measured |
| --- | --- | --- | --- | --- | --- |
| no binding (tested: 50 µg/mL) | 0.00814 | 134 | 0.25 | 2D3A11 (antibody, V domains shown, Murine monoclonal antibody purified from hybridoma supernatant) VH: EVQLQQSGPELVKPGASVRMSCKASGYTFTSYVVHWVKQKPGQGLEWIGYINPYNADSKYNERFKGKATLTSDKSSNSAYMELSSLTSEDSAVYYCSRSYYGNSFDVWGAGTTVTVSS VL: DIVMTQSPSSLTVTTGEKVTMSCKSSQSLLNSGNQKNYLTWYQQKPGQSPKLLFFWASTRQSGVPDRFTGSGSGTYFTLTISSVQAEDLAVYYCQNDYYFPFTFGTGTKLEIK | – |
| no binding (tested: 50 µg/mL) | 0.00502 | 111 | 0.16 | 1A6G10 (antibody, V domains shown, Murine monoclonal antibody purified from hybridoma supernatant; also called 1A6G11) VH: QVQLKESGGGLVKPGGSLKLSCAASGFTFSSYAMSWVRQTPEKRLEWVAAIHSNGGSTYNSDTMRDRFTISRDHAKNTLYLQMSSLRSEDTALYYCGRQSFGNALDYWGQGTSVTVSS VL: DIQMTQSPSSLTVTAGEKVTLTCKSSQSLLNSGNQKNYLTWYQQKPGQPPKLLIYWASTRESGVPDRFTGSGSGTFFTLTISSVQAEDLAVYFCQNDYVYPFTFGAGTQLELK | – |
| no binding (tested: 50 µg/mL) | 0.00738 | 160 | 0.98 | 40G11H2 (antibody, V domains shown, Murine monoclonal antibody) VH: EVQLQQSGAELARPGASVKLSCKASGYTFTSYGIRWVKQRTGQGLEWIGEIYPRGGNTYYDEKFKGKATLTADKSSSTAYMGLRSLTSEDSAVYFCARADYGNSFAYWGQGTLVTVSA VL: DIVMTQSPSSLTVTAREKVTMSCKSSQSLLNSGNQKNYLTWYHQKPGQPPKLLIYWASTRESGVPDRFTGSGSGTDFTLTISSVQAEDLAVYFCQNAYFYPFTFGTGTKLEIK | – |
| – | 0.0024 | 411 | 0 | 32F7A6 (antibody, V domains shown, Murine monoclonal antibody purified from hybridoma supernatant) VH: QIQLVQSGPELRKPGETVKISCKASGYTFTAYTMGWVKQAPGKGLEWMAWINTYSGVPTYAADFKGRFAFSLETSASTAYLLINNLKNEDTATYFCARGVRGNSMDYWGQGTSVTVSS VL: DIVETQSPSSLTVTVGERVTLSCKSSQSLLNSGNQRNYLTWSQQKPGQPPKLLIYWASTRESGVPNRFTGGGSGTYFTLTISSVQVEDLAVYYCQNTYSFPFTFGTGTKLEIK | – |
| – | – | – | – | 25C7A5-HZ2 (antibody, human IgG1, kappa, Humanized IgG1/kappa) heavy: not shown light: EIVLTQSPATLSLSPGERATLSCKASENVKTYVSWYQQKPGQSPRLLIYEASNRYTGVPARFSGSGSATDFTLTISSLEPEDFAVYFCGQTYSFPPTFGQGTKVEIKRTVAAPSVFIFPPSDEQLKSGTASVVCLLNNFYPREAKVQWKVDNALQSGNSQESVTEQDSKDSTYSLSSTLTLSKADYEKHKVYACEVTHQGLSSPVTKSFNRGEC | ADCC activity EC50 (Jurkat-NFAT-CD16a luciferase reporter, HEK293T-Claudin18.2 (human) target cells) [4]: 0.0488 µg/mL; CDC activity EC50 (guinea pig serum killing, CCK8, HEK293T-Claudin18.2 (human) cells) [4]: 3.28 µg/mL; EC50 [5]: 0.293 µg/mL; Maximum signal value [5]: 119000; EC50 [6]: 0.0148 µg/mL; EC50 [7]: 0.0112 µg/mL; Positive rate (%) [8]: 0.55%; EC50 [9]: 0.122 µg/mL; Maximum signal value [10]: 0.313 |
| no binding (tested: 50 µg/mL) | 0.0105 | 123 | 0.87 | 25C7A5 (antibody, V domains shown, Murine monoclonal antibody purified from hybridoma supernatant) VH: EVQLQQPGAELVKPGTSVKLSCKASGYTFTNYWLHWVRQRPGQGLEWIGMMHPISGSSNNNERFKSKATLTVDKSSTTAYMQLSRMTSEDSAVYYCARGLLSAMDYWGQGTSVTVSS VL: CIVLTQSPKSMSMSVGERVTLSCKASENVKTYVSWYQQRPEQSPKLLIYEASNRYTGVPDRFTGSGSATVFTLTISSVQTEDLANYFCGQTYSFPPTFGSGTKLEIK | – |
| no binding (tested: 50 µg/mL) | 0.0123 | 175 | 1.21 | 8H11A10 (antibody, V domains shown, Murine monoclonal antibody) VH: QVQLKESGPVLVAPSQSLSITCTVSGFSLTNYGVHWVRQPPGKGLEWLGVIWSGGRTNYNSALMSRLSISKDNSKSQVFLKMNSLQTDDTAMYYCAKRDGIYGDYWGQGTSVTVSS VL: DIVETQSPSSLTVTAGEKVTMSCKSSQSLLNSGNQKNYLTWYQQKPGQSPKLLIYWASTRESGVPDRFTGSGFGTDFTLTISSVQAEDLAVYYCQNDYIYPLTFGAGTKLELK | – |
| no binding (tested: 50 µg/mL) | 0.00602 | 222 | 2.16 | 23F2F2 (antibody, V domains shown, Murine monoclonal antibody purified from hybridoma supernatant) VH: QVQLKESGGGLVQPGGSMKLSCAASGFTFSDAWMNWVRQSPEKGLEWVAEIRNKADYHATHYVESVTGRFTISRDDSKSSVYLQMNRLRAEDTGIYYCTRNYGSRFDYWGQGTTLTVSS VL: DIVETQSPSSLTVTAGEKVTMSCKSSQSLLNSGNQRNYLTWYQQKPGHPPKLLIYWASTRESGVPDRFTGSGSGTDFTLTVTSVQAEDLAVYYCQNDYFYPLAFGTGTKLELK | – |
